Test results from the Human Domainome abundance scans (Beltran et al. 2025).
± gives the uncertainty stated by the source.

B1: TOX high mobility group box family member 3, residues 256 to 323; numbered along this chain, O15405 (parent)
chain: QKPVSAYALFFRDTQAAIKGQNPNATFGEVSKIVASMWDSLGEEQKQVYKRKTEAAKKEYLKALAAYR
B2: PMS1 protein homolog 1, residues 572 to 637; numbered along this chain, P54277 (parent)
chain: KKPMSASALFVQDHRPQFLIENPKTSLEDATLQIEELWKTLSEEEKLKYEEKATKDLERYNSQMKR

Variants of: B1
Assay: abundance fitness (aPCA) (normalised: wild type 0, dead -1); higher = more abundant; growth selection in yeast, the domain comes from the species named
Conditions: Homo sapiens

Going from R68W to D13E, the abundance fitness rises from -0.322 ± 0.22 to 0.11 ± 0.08.

D13H and D13A are within error of each other in abundance fitness: -0.235 ± 0.12 for the first, -0.259 ± 0.12 for the second.

Going from D13S to A25Y, the abundance fitness rises from -0.516 ± 0.092 to -0.058 ± 0.071.

First: A25P
Second: K32S
The abundance fitness of the first is lower: -0.874 ± 0.15 for the first, -0.107 ± 0.053 for the second.

K32W and K32Q are within error of each other in abundance fitness: -0.455 ± 0.14 for the first, -0.337 ± 0.097 for the second.

K32C and G20P are within error of each other in abundance fitness: -0.289 ± 0.072 for the first, -0.327 ± 0.12 for the second.

First: G20Y
Second: G20L
The abundance fitness of the first is lower: -0.361 ± 0.096 for the first, 0.145 ± 0.052 for the second.

Going from L64V to L64A, the abundance fitness falls from 0.131 ± 0.05 to -0.093 ± 0.093.

Compared with L64E, L64F is lower in abundance fitness: 0.354 ± 0.066 for the first, -0.273 ± 0.095 for the second.

First: L64G
Second: L64W
The abundance fitness of the first is higher: 0.241 ± 0.05 for the first, -0.227 ± 0.08 for the second.

Compared with L64D, K2F is lower in abundance fitness: 0.323 ± 0.076 for the first, -0.083 ± 0.13 for the second.

K2T and K2M are within error of each other in abundance fitness: -0.294 ± 0.081 for the first, -0.335 ± 0.083 for the second.

K2D and D39M are within error of each other in abundance fitness: -0.311 ± 0.14 for the first, -0.191 ± 0.08 for the second.

D39N and D39V are within error of each other in abundance fitness: -0.217 ± 0.21 for the first, -0.262 ± 0.071 for the second.

D39E and D39C are within error of each other in abundance fitness: 0.022 ± 0.084 for the first, -0.055 ± 0.43 for the second.

Q1H and Q1M are within error of each other in abundance fitness: 0.119 ± 0.09 for the first, 0.137 ± 0.13 for the second.

Q1A and E59H are within error of each other in abundance fitness: -0.474 ± 0.16 for the first, -0.744 ± 0.34 for the second.

First: E59D
Second: E59W
The abundance fitness of the first is higher: 0.047 ± 0.11 for the first, -0.573 ± 0.085 for the second.

E59C and E59N are within error of each other in abundance fitness: -0.366 ± 0.15 for the first, -0.246 ± 0.15 for the second.

V4A and V4F are within error of each other in abundance fitness: -0.202 ± 0.079 for the first, -0.148 ± 0.078 for the second.

Compared with V4Q, E43G is lower in abundance fitness: -0.073 ± 0.058 for the first, -0.43 ± 0.099 for the second.

E43D and E43T are within error of each other in abundance fitness: -0.151 ± 0.12 for the first, -0.022 ± 0.06 for the second.

Y60K and Y60T are within error of each other in abundance fitness: 0.128 ± 0.073 for the first, 0.148 ± 0.059 for the second.

First: Y60W
Second: K62R
The abundance fitness of the first is lower: -0.258 ± 0.12 for the first, -0.002 ± 0.038 for the second.

K62N and K62Q are within error of each other in abundance fitness: -0.069 ± 0.069 for the first, -0.118 ± 0.07 for the second.

Compared with Q45D, Q45A is lower in abundance fitness: 0.132 ± 0.16 for the first, -0.154 ± 0.075 for the second.

First: Q45W
Second: Q45L
The abundance fitness of the first is lower: -0.642 ± 0.095 for the first, -0.433 ± 0.06 for the second.

K19F and S36V are within error of each other in abundance fitness: -0.139 ± 0.099 for the first, -0.218 ± 0.065 for the second.

S36F and S36I are within error of each other in abundance fitness: -0.242 ± 0.12 for the first, -0.191 ± 0.094 for the second.

Compared with S36L, S36G is higher in abundance fitness: -0.344 ± 0.052 for the first, 0.01 ± 0.053 for the second.

S36Y and S36M are within error of each other in abundance fitness: -0.182 ± 0.08 for the first, -0.097 ± 0.057 for the second.

Compared with G42Y, G42S is higher in abundance fitness: -0.525 ± 0.15 for the first, 0.086 ± 0.048 for the second.

First: E29Y
Second: A66S
The abundance fitness of the first is lower: -0.372 ± 0.095 for the first, 0.061 ± 0.052 for the second.

A66V and A66T are within error of each other in abundance fitness: 0.064 ± 0.075 for the first, 0.184 ± 0.061 for the second.

Going from A66E to Q21T, the abundance fitness falls from 0.218 ± 0.067 to -0.011 ± 0.084.

Q21Y and Q21V are within error of each other in abundance fitness: -0.338 ± 0.1 for the first, -0.321 ± 0.069 for the second.

Q21N and Q21K are within error of each other in abundance fitness: 0.048 ± 0.077 for the first, 0.029 ± 0.1 for the second.

Going from T53F to T53W, the abundance fitness falls from 0.157 ± 0.11 to -0.152 ± 0.055.

T53K and T53D are within error of each other in abundance fitness: 0.001 ± 0.098 for the first, -0.022 ± 0.066 for the second.

First: V30K
Second: V30C
The abundance fitness of the first is lower: -0.702 ± 0.15 for the first, -0.309 ± 0.091 for the second.

In the case of A65G, the abundance fitness is reported as 0.067 ± 0.047.

Variants of: B2
Assay: as above
Conditions: Homo sapiens

R66N and R66P are within error of each other in abundance fitness: 0.031 ± 0.34 for the first, 0.082 ± 0.1 for the second.

R66W and R66S are within error of each other in abundance fitness: -0.261 ± 0.17 for the first, -0.063 ± 0.12 for the second.

R66Y and R66L are within error of each other in abundance fitness: -0.069 ± 0.13 for the first, 0.012 ± 0.088 for the second.

R66T and R66A are within error of each other in abundance fitness: 0.019 ± 0.12 for the first, 0.067 ± 0.082 for the second.

Compared with R66M, R66I is lower in abundance fitness: 0.044 ± 0.14 for the first, -0.697 ± 0.43 for the second.

R66K and R66F are within error of each other in abundance fitness: -0.152 ± 0.33 for the first, 0.095 ± 0.17 for the second.

R66C and R66G are within error of each other in abundance fitness: -0.113 ± 0.16 for the first, 0.054 ± 0.11 for the second.

R66E and R66V are within error of each other in abundance fitness: 0.031 ± 0.17 for the first, 0.097 ± 0.069 for the second.

M64G and M64V are within error of each other in abundance fitness: -0.103 ± 0.1 for the first, 0.015 ± 0.067 for the second.

M64A and M64E are within error of each other in abundance fitness: -0.059 ± 0.09 for the first, -0.195 ± 0.2 for the second.

M64S and M64P are within error of each other in abundance fitness: -0.049 ± 0.055 for the first, -0.108 ± 0.096 for the second.

M64L and M64H are within error of each other in abundance fitness: -0.133 ± 0.062 for the first, 0.08 ± 0.16 for the second.

M64T and M64F are within error of each other in abundance fitness: -0.142 ± 0.099 for the first, -0.095 ± 0.15 for the second.

M64Y and M64N are within error of each other in abundance fitness: 0.035 ± 0.14 for the first, -0.144 ± 0.13 for the second.

M64I and M64D are within error of each other in abundance fitness: -0.172 ± 0.12 for the first, -0.32 ± 0.2 for the second.

M64R and M64C are within error of each other in abundance fitness: -0.136 ± 0.083 for the first, -0.205 ± 0.15 for the second.

M64K and Q63E are within error of each other in abundance fitness: -0.349 ± 0.21 for the first, -0.038 ± 0.14 for the second.

Q63K and Q63F are within error of each other in abundance fitness: 0.02 ± 0.11 for the first, -0.036 ± 0.4 for the second.

Q63D and Q63C are within error of each other in abundance fitness: 0.079 ± 0.15 for the first, -0.096 ± 0.11 for the second.

Going from Q63N to Q63I, the abundance fitness falls from 0.075 ± 0.16 to -0.348 ± 0.17.

Q63L and Q63T are within error of each other in abundance fitness: -0.109 ± 0.067 for the first, -0.072 ± 0.088 for the second.

Q63Y and Q63S are within error of each other in abundance fitness: -0.078 ± 0.088 for the first, -0.207 ± 0.1 for the second.

Q63R and Q63P are within error of each other in abundance fitness: -0.178 ± 0.081 for the first, -0.262 ± 0.098 for the second.

Q63H and Q63V are within error of each other in abundance fitness: -0.21 ± 0.16 for the first, -0.113 ± 0.061 for the second.

Q63M and Q63G are within error of each other in abundance fitness: -0.109 ± 0.12 for the first, -0.093 ± 0.074 for the second.

Q63A and S62K are within error of each other in abundance fitness: 0.071 ± 0.079 for the first, 0.049 ± 0.078 for the second.

S62V and S62F are within error of each other in abundance fitness: -0.078 ± 0.063 for the first, -0.067 ± 0.078 for the second.

S62M and S62P are within error of each other in abundance fitness: -0.099 ± 0.098 for the first, -0.148 ± 0.09 for the second.

S62N and S62R are within error of each other in abundance fitness: 0.017 ± 0.12 for the first, -0.09 ± 0.11 for the second.

S62W and S62Y are within error of each other in abundance fitness: -0.084 ± 0.15 for the first, -0.104 ± 0.096 for the second.

S62E and S62I are within error of each other in abundance fitness: -0.035 ± 0.11 for the first, -0.249 ± 0.14 for the second.

S62Q and S62L are within error of each other in abundance fitness: -0.027 ± 0.085 for the first, -0.071 ± 0.071 for the second.

S62G and S62T are within error of each other in abundance fitness: -0.151 ± 0.074 for the first, -0.227 ± 0.093 for the second.

S62H and S62D are within error of each other in abundance fitness: 0.021 ± 0.14 for the first, -0.115 ± 0.15 for the second.

K65V and K65Y are within error of each other in abundance fitness: -0.068 ± 0.1 for the first, -0.207 ± 0.19 for the second.

K65C and K65M are within error of each other in abundance fitness: -0.203 ± 0.24 for the first, -0.237 ± 0.12 for the second.

K65I and K65Q are within error of each other in abundance fitness: -0.25 ± 0.2 for the first, 0.02 ± 0.11 for the second.

K65T and K65G are within error of each other in abundance fitness: -0.264 ± 0.18 for the first, -0.497 ± 0.19 for the second.

Compared with K65A, K65W is lower in abundance fitness: 0.014 ± 0.092 for the first, -0.502 ± 0.22 for the second.

K65H and K65N are within error of each other in abundance fitness: -0.373 ± 0.25 for the first, -0.163 ± 0.12 for the second.

K65F and K65R are within error of each other in abundance fitness: -0.276 ± 0.22 for the first, -0.086 ± 0.12 for the second.

K65E and K65D are within error of each other in abundance fitness: 0.073 ± 0.12 for the first, 0.084 ± 0.2 for the second.

K65L and K65P are within error of each other in abundance fitness: 0.029 ± 0.081 for the first, 0.009 ± 0.13 for the second.
